Values of other authors in patent publication US20130252257A1, “QUANTIFICATION OF CIRCULATING STEM AND PROGENITOR CELLS AS A MEANS OF ASSESSING EFFICACY OF NATUROPATHIC INTERVENTIONS” (Creative Medical Health, Inc., priority 2011, published 2013).
Like-named read-outs stand apart in the source and are kept apart here.

What was measured:
circulating EPC = details: in vivo
[1] = system: endothelial responsiveness
[2] = system: endothelial progenitor cells (EPC); details: in addition to mobilizing HSC
myocardial infarct = details: 114 patients, 56 treated and 58 control
[3] = system: ST-elevation myocardial infarction; details: 6 days of G-CSF at 10 μg/kg
large anterior wall AMI = details: 41 patients with large anterior wall AMI

## CC(C)c1nc(N(C)S(C)(=O)=O)nc(-c2ccc(F)cc2)c1/C=C/[C@@H](O)C[C@@H](O)CC(=O)O [Crestor]
Circulating EPC
  circulating EPC levels: increase circulating EPC levels

## growth hormone: growth hormone, used in antiaging medicine; clinically-applicable mobilizer
[1]; healthy volunteers
  endothelial responsiveness: improve endothelial responsiveness
[1]; patients with congestive heart failure
  endothelial responsiveness: improve endothelial responsiveness

B1: G-CSF: Granulocyte colony stimulating factor, used clinically for mobilization of hematopoietic stem cells (protein, UniProt P09919 31-207, looked up)
Granulocyte …: TPLGPASSLPQSFLLKCLEQVRKIQGDGAALQEKLVSECATYKLCHPEELVLLGHSLGIPWAPLSSCPSQALQLAGCLSQLHSGLFLYQGLLQALEGISPELGPTLDTLQLDVADFATTIWQQMEELGMAPALQPTQGAMPAFASAFQRRAGGVLVASHLQSFLEVSYRVLRHLAQP
[2]
  mobilization of EPC: stimulates mobilization of EPC
Myocardial infarct
  infarct size, left ventricular function, or coronary restenosis: no influence
[3]; in comparison to controls
  ejection fraction: Statistically significant improvements
  pathological remodeling: inhibition of pathological remodeling
[3]; four months after infarct, versus controls, sustained over a year
  myocardial wall at the area of infarct: thicker myocardial wall
Large anterior wall AMI
  left ventricle ejection fraction (LVEF): improvement
  pathological remodeling: diminished pathological remodeling
